Experimental data reported in patent US20230014722A1.

Biological target: cynomolgus PD-1 (Sino Biological), coated on plates (cynomolgus) (UniProt B0LAJ3)
Test: ELISA, plates coated with cynomolgus PD-1 at 1 µg/ml

cynomolgus PD-1 (Sino Biological), coated on plates (cynomolgus), sequence (B0LAJ3 entry or part of it limits assumed): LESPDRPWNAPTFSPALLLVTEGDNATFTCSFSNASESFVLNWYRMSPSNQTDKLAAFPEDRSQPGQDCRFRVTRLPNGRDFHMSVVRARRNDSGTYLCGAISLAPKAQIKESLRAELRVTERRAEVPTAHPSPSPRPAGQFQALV

EC50: 0.23 nM
Substance: Keytruda (antibody)
